The values that follow come from PMC12246617, “Cryo-EM structures reveal the PP2A–B55α and Eya3 interaction that can be disrupted by a peptide inhibitor” (The Journal of Biological Chemistry, 2025).

For assay [1], the target named is T1, FLAG-hEya3 (human Eya3, full length) (human, UniProt Q99504 1-573).
T1 construct: Eya3, human, full length; cloned as FLAG-hEya3 in pCAG; only residues 65-86 are modelled in the structure; also called full-length Eya3; FLAG-Eya3
T1 sequence (looked up): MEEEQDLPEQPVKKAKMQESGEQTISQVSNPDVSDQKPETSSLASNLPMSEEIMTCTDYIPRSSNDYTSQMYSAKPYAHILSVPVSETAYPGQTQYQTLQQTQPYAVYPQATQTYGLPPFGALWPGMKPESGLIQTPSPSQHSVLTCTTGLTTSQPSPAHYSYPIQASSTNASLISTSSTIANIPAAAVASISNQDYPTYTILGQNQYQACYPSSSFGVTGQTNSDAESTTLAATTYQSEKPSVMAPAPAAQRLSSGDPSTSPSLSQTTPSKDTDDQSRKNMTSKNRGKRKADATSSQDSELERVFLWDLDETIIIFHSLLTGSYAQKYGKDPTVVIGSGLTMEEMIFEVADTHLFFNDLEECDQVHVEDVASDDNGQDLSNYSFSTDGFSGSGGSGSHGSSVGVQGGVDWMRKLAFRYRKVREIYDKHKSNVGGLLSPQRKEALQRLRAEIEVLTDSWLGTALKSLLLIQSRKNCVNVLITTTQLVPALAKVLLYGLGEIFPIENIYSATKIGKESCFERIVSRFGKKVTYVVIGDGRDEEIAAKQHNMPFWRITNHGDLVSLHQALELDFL
Briefly: mass photometry; proteins combined at a molar ratio of 1.5:1 in 20 mM Tris pH 8, 250 mM NaCl, 1 mM MnCl2, 0.5 mM TCEP, on ice, in the presence or absence of 25 μM B55i peptide; diluted to 100 nM before reading (Refeyn TwoMP). The following applies: both partners purified.

Assay [2] deals with T1, FLAG-hEya3 (human Eya3, full length). Briefly: cryo-EM structure; PP2A–B55 + Eya3: 10 μM purified PP2A–B55 incubated with 15 μM full-length Eya3; 0.1% CHAPSO added before vitrification; 3.7 Å. The following applies: both partners purified.

B1: His-hB55 (human PP2A regulatory subunit B55α) (natural protein, UniProt P63151 1-447, looked up)
chain: MAGAGGGNDIQWCFSQVKGAVDDDVAEADIISTVEFNHSGELLATGDKGGRVVIFQQEQENKIQSHSRGEYNVYSTFQSHEPEFDYLKSLEIEEKINKIRWLPQKNAAQFLLSTNDKTIKLWKISERDKRPEGYNLKEEDGRYRDPTTVTTLRVPVFRPMDLMVEASPRRIFANAHTYHINSISINSDYETYLSADDLRINLWHLEITDRSFNIVDIKPANMEELTEVITAAEFHPNSCNTFVYSSSKGTIRLCDMRASALCDRHSKLFEEPEDPSNRSFFSEIISSISDVKFSHSGRYMMTRDYLSVKIWDLNMENRPVETYQVHEYLRSKLCSLYENDCIFDKFECCWNGSDSVVMTGSYNNFFRMFDRNTKRDITLEASRENNKPRTVLKPRKVCASGKRKKDEISVDSLDFNKKILHTAWHPKENIIAVATTNNLYIFQDKVN
notes: PP2A regulatory B subunit B55α, human; cloned as His-hB55 in pFASTbac; Labelled on the His tag with RED-Tris-NTA dye for MST; also called His-B55; His-B55α; source: Hi5 insect cells, purified (nickel resin)
For B1, the binding result in assay [1] is listed as “binds”.

B2: FLAG-hB55 (B55α subunit of the PP2A–B55 holoenzyme purified from HEK293 FreeStyle cells) (natural protein, human)
chain: AGAGGGNDIQWCFSQVKGAVDDDVAEADIISTVEFNHSGELLATGDKGGRVVIFQQEQENKIQSHSRGEYNVYSTFQSHEPEFDYLKSLEIEEKINKIRWLPQKNAAQFLLSTNDKTIKLWKISERDKRPEGYNLKEEDGRYRDPTTVTTLRVPVFRPMDLMVEASPRRIFANAHTYHINSISINSDYETYLSADDLRINLWHLEITDRSFNIVDIKPANMEELTEVITAAEFHPNSCNTFVYSSSKGTIRLCDMRASALCDRHSKLFEEPEDPSNRSFFSEIISSISDVKFSHSGRYMMTRDYLSVKIWDLNMENRPVETYQVHEYLRSKLCSLYENDCIFDKFECCWNGSDSVVMTGSYNNFFRMFDRNTKRDITLEASRENNKPRTVLKPRKVCASGKRKKDEISVDSLDFNKKILHTAWHPKENIIAVATTNNLYIFQDKVN
notes: PP2A regulatory B subunit B55α, human; FLAG-hB55 in pCAG; The same chain as the first chain of m7, written alone for the contacts seen in the structures; also called FLAG-B55; B55 subunit
For B2, the binding result in assay [2] is “binds”.
